Experiment [1] deals with T1, Human nectin-4 ECD-6His (TNT-175) (human, UniProt Q96NY8 32-349).
T1 construct: the entry holds the extracellular domain with the C-terminal 6His tag
T1 sequence: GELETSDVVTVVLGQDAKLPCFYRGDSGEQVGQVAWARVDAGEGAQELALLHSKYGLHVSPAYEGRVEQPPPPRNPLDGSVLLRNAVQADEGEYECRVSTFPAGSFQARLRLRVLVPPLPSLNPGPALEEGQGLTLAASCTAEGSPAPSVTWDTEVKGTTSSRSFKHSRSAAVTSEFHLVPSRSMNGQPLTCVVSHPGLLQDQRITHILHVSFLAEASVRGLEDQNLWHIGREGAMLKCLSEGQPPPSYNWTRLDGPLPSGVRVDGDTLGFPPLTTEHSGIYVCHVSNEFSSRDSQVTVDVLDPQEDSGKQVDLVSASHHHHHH
The experiment can be described thus: competition ELISA; nectin-4 ECD premixed with TNT206, captured by the coat antibody; % of signal without premix antibody. The protocol: (§1) Competition experiments of nectin-4 antibodies. ELISA plates were coated overnight at 4° C. with goat anti-mouse IgG at […] in PBS. […] As positive control, nectin-4 was diluted at same concentrations without a premix antibody. Two wells per plate were allocated for diluent only as negative/background control. Plates were washed as previously, 50 μL/well of premix was added to each plate and incubated for one hour. Plates were washed then incubated at room temperature for one hour with Rabbit anti 6× HIS HRP diluted 1:4,000 in diluent. Plates were washed once more and incubated at room temperature for 20 minutes with 50 μL/well of ABTS substrate. […] Binding was measured as an Optical Density (O.D.) value normalized to background and calculated as a percentage of positive control at the lowest nectin-4 dilution for greatest resolution.
On the technique in general: In an ELISA, binding on a coated surface is turned into a signal by an enzyme label.

The target in experiment [2] is T1, Human nectin-4 ECD-6His (TNT-175). The experiment can be described thus: competition ELISA; nectin-4 ECD premixed with TNT209, captured by the coat antibody; % of signal without premix antibody. As to the method:
as §1

Experiment [3] has the same target. In words: competition ELISA; nectin-4 ECD premixed with TNT205, captured by the coat antibody; % of signal without premix antibody. The protocol: as §1
The target is the same in experiment [4]. In words: SPR ProteOn, mAb on protein A. As to the method: Initial testing of binding of nectin-4 antibodies to nectin-4. […] Biotinylated protein A (15 μg/mL) was immobilized to the surface of an NLC chip. 30 nM of purified mAb supernatant was diluted in PBS-T and captured over the protein A surface. Serial dilutions of human nectin-4 were injected over the mAb-coated chips, and binding kinetics were determined. Chips were regenerated using 4:1 v/v of IgG elution butter/4M NaCl.

The target is the same in experiment [5]. In words: competition ELISA; nectin-4 ECD premixed with TNT202, captured by the coat antibody; % of signal without premix antibody. As to the method:
as §1

For experiment [6] the target is unchanged. In words: competition ELISA; nectin-4 ECD premixed with TNT201, captured by the coat antibody; % of signal without premix antibody. As to the method:
as §1

Experiment [7] deals with T2, human nectin-4 on cells (human, UniProt Q96NY8 32-510).
T2 construct: whole, on cells; also called PVRL4
T2 sequence (looked up): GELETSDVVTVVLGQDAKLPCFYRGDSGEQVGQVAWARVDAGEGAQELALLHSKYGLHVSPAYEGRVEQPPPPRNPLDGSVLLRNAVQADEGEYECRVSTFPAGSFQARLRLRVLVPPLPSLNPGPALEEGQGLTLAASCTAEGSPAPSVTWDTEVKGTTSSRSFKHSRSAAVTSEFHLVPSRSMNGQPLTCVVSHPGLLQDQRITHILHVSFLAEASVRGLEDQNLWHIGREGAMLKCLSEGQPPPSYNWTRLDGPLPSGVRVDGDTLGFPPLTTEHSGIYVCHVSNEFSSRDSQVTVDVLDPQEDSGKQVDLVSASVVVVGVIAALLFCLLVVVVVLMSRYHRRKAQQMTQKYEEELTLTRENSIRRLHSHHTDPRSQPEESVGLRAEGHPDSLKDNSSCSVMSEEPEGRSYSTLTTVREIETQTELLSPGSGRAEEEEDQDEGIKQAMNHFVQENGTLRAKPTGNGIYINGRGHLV
The experiment can be described thus: flow cytometry MFI, MNK74 (nectin-4 positive) over AGS (negative). The protocol:
Cell binding of nectin-4 antibodies. Cell binding of the nectin-4 antibodies was also assessed. MNK74 (nectin-4 positive) and AGS (nectin-4 negative) cells were obtained from ATCC and cultured according to their protocols. Cells were detached with TrypLE (Gibco) and washed by centrifugation for five minutes at 400×g with FACS buffer (PBS+2% FBS). Cells were resuspended in FACS buffer, plated in 96-well format (0.25 e6/well) then pelleted by centrifugation for five minutes at 400×g. Cells were stained at 4° C. in Fixable Viability Dye eFluor 506 (eBioscience) diluted 1:4,000 in PBS. […] Cells were centrifuged, washed once in FACS buffer and stained at 4° C. with Goat F(ab′)₂ anti-Mouse IgG APC (Southern Biotech) diluted 1:400 in FACS buffer for 30 minutes or appropriate anti-human IgG. Cells were centrifuged, washed twice and fixed in 0.5% paraformaldehyde. Cells were analyzed on Attune NxT Flow Cytometer (Thermo Fisher), with subsequent data analysis by Flowjo 10.7 (BD). Dead cells were excluded by gating on the eFluor 506-negative population. […] Binding was assessed by median fluorescent intensity.
On the technique in general: Flow cytometry measures light scatter and fluorescence of single cells or particles in a stream.

In experiment [8] the target is T1, Human nectin-4 ECD-6His (TNT-175). In words: competition ELISA; nectin-4 ECD premixed with TNT211, captured by the coat antibody; % of signal without premix antibody. As to the method:
as §1

Experiment [9] shares this target. The experiment can be described thus: competition ELISA; nectin-4 ECD premixed with TNT212, captured by the coat antibody; % of signal without premix antibody. As to the method:
as §1

Experiment [10] has the same target. The experiment can be described thus: competition ELISA; nectin-4 ECD premixed with TNT207, captured by the coat antibody; % of signal without premix antibody. As to the method: as §1
Experiment [11] shares this target. The experiment can be described thus: competition ELISA; nectin-4 ECD premixed with TNT210, captured by the coat antibody; % of signal without premix antibody. The protocol: as §1
Experiment [12] has the same target. In words: competition ELISA; nectin-4 ECD premixed with TNT204, captured by the coat antibody; % of signal without premix antibody. The protocol:
as §1

Experiment [13] has the same target. The experiment can be described thus: competition ELISA; nectin-4 ECD premixed with TNT208, captured by the coat antibody; % of signal without premix antibody. As to the method: as §1
Experiment [14] has the same target. The experiment can be described thus: competition ELISA; nectin-4 ECD premixed with TNT203, captured by the coat antibody; % of signal without premix antibody. As to the method: as §1

B1: TNT-196 (antibody, mouse IgG2a, kappa)
heavy: EVQLVESGGGLVQPGGSLRLSCAASGFTFSDYYMSWIRQAPGKGLEWVSGISWNSGSIGYADSVKGRFTISRDNSKNTLYLQMNSLRAEDTAVYYCASSGSWYLPLDYWGQGTLVTVSSAKTTAPSVYPLAPVCGDTTGSSVTLGCLVKGYFPEPVTLTWNSGSLSSGVHTFPAVLQSDLYTLSSSVTVTSSTWPSQSITCNVAHPASSTKVDKKIEPRGPTIKPCPPCKCPAPNLLGGPSVFIFPPKIKDVLMISLSPIVTCVVVDVSEDDPDVQISWFVNNVEVHTAQTQTHREDYNSTLRVVSALPIQHQDWMSGKEFKCKVNNKDLPAPIERTISKPKGSVRAPQVYVLPPPEEEMTKKQVTLTCMVTDFMPEDIYVEWTNNGKTELNYKNTEPVLDSDGSYFMYSKLRVEKKNWVERNSYSCSVVHEGLHNHHTTKSFSRTPGRPQGFGPP
light: DIQMTQSPSSLSASVGDRVTITCQASQDISNYLNWYQQKPGKVPKLLIYAASTLQSGVPSRFSGSGSGTDFTLTISSLQPEDFATYYCQQSYSTPLTFGGGTKVEIKRADAAPTVSIFPPSSEQLTSGGASVVCFLNNFYPKDINVKWKIDGSERQNGVLNSWTDQDSKDSTYSMSSTLTLTKDEYERHNSYTCEATHKTSTSPIVKSFNRNEC
As usually defined, the Kd is the concentration at which binding is half-saturated. In general, koff refers to a measure of how fast the partners let go of each other. Lower therefore signals slow dissociation. Broadly, the kon is the rate constant with which the complex forms. A low value points to slow association. For the molecule B1, the “% of Positive” value in experiment [1] is 5.5%; in experiment [2] it was 17.8%; in experiment [3] it was 35.9%; in experiment [5] it was 2.8%; in [6], 0.9%; in experiment [8] it was 13.8%. Further, the “% of Positive” value in experiment [9] came to 1.8%; in experiment [10], 1.3%; in [11] it was 1.5%; in [12], 2.6%; in experiment [13], 2%; in [14], 18.3%. For the same molecule, the Kd in [4] was 15.2 nM. In addition, the koff in [4] came out at 0.0245 s⁻¹. The same molecule returned a kon in [4] of 1.62e+06 M⁻¹ s⁻¹. The “Fold-change of binding to MNK74 compared to control AGS” value in experiment [7] came to 6 fold.

B2: TNT-153 (antibody, mouse IgG2a, kappa)
heavy: EVQLVESGGGLVQPGGSLRLSCAASGFTFSSYNMNWVRQAPGKGLEWVSYISSSSSTIYYADSVKGRFTISRDNAKNSLSLQMNSLRDEDTAVYYCARAYYYGMDVWGQGTTVTVSSAKTTAPSVYPLAPVCGDTTGSSVTLGCLVKGYFPEPVTLTWNSGSLSSGVHTFPAVLQSDLYTLSSSVTVTSSTWPSQSITCNVAHPASSTKVDKKIEPRGPTIKPCPPCKCPAPNLLGGPSVFIFPPKIKDVLMISLSPIVTCVVVDVSEDDPDVQISWFVNNVEVHTAQTQTHREDYNSTLRVVSALPIQHQDWMSGKEFKCKVNNKDLPAPIERTISKPKGSVRAPQVYVLPPPEEEMTKKQVTLTCMVTDFMPEDIYVEWTNNGKTELNYKNTEPVLDSDGSYFMYSKLRVEKKNWVERNSYSCSVVHEGLHNHHTTKSFSRTPGLLQGG
light: DIQMTQSPSSVSASVGDRVTITCRASQGISGWLAWYQQKPGKAPKFLIYAASTLQSGVPSRFSGSGSGTDFTLTISSLQPEDFATYYCQQANSFPPTFGGGTKVEIKRADAAPTVSIFPPSSEQLTSGGASVVCFLNNFYPKDINVKWKIDGSERQNGVLNSWTDQDSKDSTYSMSSTLTLTKDEYERHNSYTCEATHKTSTSPIVKSFNRNEC
B2: the “% of Positive” value in experiment [1] was 7.7%; in experiment [2] it was 26.2%; in [3] it was 50%; in experiment [5] it was 3.6%; in experiment [6] it was 2.8%; in [8], 22.2%. The “% of Positive” value is 5.6% in experiment [9]; 2.2% in [10]; 4% in [11]; 4.2% in [12]; 3.5% in experiment [13]; 28.8% in experiment [14]. The molecule also displayed a Kd in [4] of 3.8 nM. Further, the koff in [4] came out at 0.00399 s⁻¹. This molecule also yielded a kon in experiment [4] of 1.05e+06 M⁻¹ s⁻¹. Also, the “Fold-change of binding to MNK74 compared to control AGS” value in [7] is 7.4 fold.

These data come from US20240382610A1 (TALLAC THERAPEUTICS, published 2024).
